From patent US20220259593A1, “CONTROL OF MAMMALIAN GENE DOSAGE USING CRISPR” (The Regents of the University of California, priority 2019, published 2022)

B1: cr227 (nucleic acid)
guide: GTTTAAGAGCTAAGCTGGAAACAGCATAGCAAGTTTAAATAAGGCTAGTCCGCTAACCACTTGAAAAAGTGGCACCGAGTCGGTGCT
modifications: listed as DNA, chemistry not fully specified
B2: cr338 (nucleic acid)
guide: GTTTAAGAGCTAAGCTGGAAACAGCATAGCAAGTCTAAATAAGGCGAGTCCGTTATCAACTTGAAAAAGTGGCACCGAGTCGGTGCT
modifications: listed as DNA, chemistry not fully specified
B3: cr598 (nucleic acid)
guide: GTTTAAGAGCTAAGCTGGAAACAGCATAGCAAGCTTAAATAAGGCTAGTCCGTTATCAACTGGAAACAGTGGCACCGAGTCGGTGCT
modifications: listed as DNA, chemistry not fully specified
B4: cr440 (nucleic acid)
guide: GTTTAAGAGCTAAGCTGGAAACAGCATAGCAAGTTTAAATAAGGCTAGTCCGTTATCAACTTGAAAAACTGGCACCGAGTCGGTGCT
modifications: listed as DNA, chemistry not fully specified
B5: cr481 (nucleic acid)
guide: GTTTAAGAGCTAAGCTGGAAACAGCATAGCAAGTTTAAATAAGGGTACTCCGTTATCAACTTGAAAAAGTGACACCGAGTCGGTGTT
modifications: listed as DNA, chemistry not fully specified
B6: cr491 (nucleic acid)
guide: GTTTAAGAGCTAAGCTGGAAACAGCATAGCAAGTTTAAATAAGGATATTCCGTTATCAAGTTGAAAAACTGGCACCGAGTCGGTGCT
modifications: listed as DNA, chemistry not fully specified
B7: cr602 (nucleic acid)
guide: GTTTAAGAGCTAAGCTGGAAACAGCATAGCAAGTTTAAATAAGGCTAGTCCGTTATCAACTTGAAAAAGTGGCGCCGAGTCGGCGCT
modifications: listed as DNA, chemistry not fully specified
B8: cr631 (nucleic acid)
guide: GTTTAAGAGCTAAGCTGGAAACAGCATAGCAAGTTTAAATAAGGATATTCCGTTATCAACATGAAAATGTGGCAACGAGTCGTTGCT
modifications: listed as DNA, chemistry not fully specified
B9: cr803 (nucleic acid)
guide: GTTTAAGAGCTAAGCTGGAAACAGCATAGCAAGTTTAAATAAGGATATTCCGTTATCAACTTGAGAAAGTGGCACCGAGTCGGTGCT
modifications: listed as DNA, chemistry not fully specified
B10: cr827 (nucleic acid)
guide: GTTTAAGAGCTAAGCTGGAAACAGCATAGCAAGTTTAAATAAGGATATTCCGTTATCAACTTGAAAAAGTGGCTACGAGTCGTAGCT
modifications: listed as DNA, chemistry not fully specified
B11: cr479 (nucleic acid)
guide: GTTTAAGAGCTAAGCTGGAAACAGCATAGCAAGTTTAAATAAGGCTAGTCCGTTATCAAGTTGAAAAACTGGGACCCAGTGGGTCCT
modifications: listed as DNA, chemistry not fully specified
B12: cr008 (nucleic acid)
guide: GTCTAAGAGCTAAGCTGGAAACAGCATAGCAAGTTTAAATAAGGCTAGTCCGTTATCAACTTGAAAAAGTGGCACCGAGTCGGTGCT
modifications: listed as DNA, chemistry not fully specified
B13: cr282 (nucleic acid)
guide: GTTTAAGAGCTAAGCTGGAAACAGCATAGCAAGTTTAAATAAGGCTAGTCCGTTATCAACTTGAAAAAGTGCACCCGAGTCGGGTGT
modifications: listed as DNA, chemistry not fully specified
B14: cr451 (nucleic acid)
guide: GTTTAAGAGCTAAGCTGGAAACAGCATAGCAAGTTTAAATAAGGATATTCCGTTATCAACTTGAAAAAGTGGCTCCGAGTCGGAGCT
modifications: listed as DNA, chemistry not fully specified
B15: cr915 (nucleic acid)
guide: GTTTAAGAGCTAAGCTGGAAACAGCATAGCAAGTTTAAATAAGGCTAGTCCGTTATCAACTTGAAAAAGTGGCACCCAGTGGGTGCT
modifications: listed as DNA, chemistry not fully specified
B16: cr927 (nucleic acid)
guide: GTTTAAGAGCTAAGCTGGAAACAGCATAGCAAGTTTAAATAAGGCTAGTCCGTTATCAACTTGAAAAAGTGGCGCCCAGTGGGCGCT
modifications: listed as DNA, chemistry not fully specified
B17: cr456 (nucleic acid)
guide: GTTTAAGAGCTAAGCTGGAAACAGCATAGCAAATTTAAATAAGGCAAGTCCGTTATCAACTTGAAAAAGTGGCACCGAGTCGGTGCT
modifications: listed as DNA, chemistry not fully specified
B18: cr300 (nucleic acid)
guide: GTTTAAGAGCTAAGCTGGAAACAGCATAGCAAGTTTAAATAAGGATATTCCGTTATCAACTTGAAAAAGTGATACCGAGTCGGTATT
modifications: listed as DNA, chemistry not fully specified
B19: cr212 (nucleic acid)
guide: GTTTAAGAGCTAAGCTGGAAACAGCATAGCAAATTTAAATAAGGCTAGTCCGTTATCAACTTGAAGAAGTGGCACCGAGTCGGTGCT
modifications: listed as DNA, chemistry not fully specified
B20: cr639 (nucleic acid)
guide: GTTTAAGAGCTAAGCTGGAAACAGCATAGCAAGTTTAAATAAGGATATTCCGTTATCAACTTGAAAAAGTGGCACCGAGTCGGTGCT
modifications: listed as DNA, chemistry not fully specified
B21: cr458 (nucleic acid)
guide: GTTTAAGAGCTAAGCTGGAAACAGCATAGCAAGTTTAAATAAGGCTAGTCCGTTATCAACTTGAGAAAGTCGCACCGAGTCGGTGCT
modifications: listed as DNA, chemistry not fully specified
B22: cr726 (nucleic acid)
guide: GTTTAAGAGCTAAGCTGGAAACAGCATAGCATGTTTAAATAAGGCTAGTCCATTCTCAACTTGAAAAAGTGGCACCGAGTCGGTGCT
modifications: listed as DNA, chemistry not fully specified

test system: K562 CRISPRi cells; assay: Constant region variant library pooled growth screen, K562; type: cell-based, human; conditions: sgRNA constant region variants; activity relative to the original, un-modified constant region cr995
Procedure, shortened: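 Cells were selected with puromycin for 2 days and then kept in RPMI-1640 spinner cultures, with duplicates handled separately. Targeting sequences comprised 3 sgRNAs per essential gene for 10 genes plus six non-targeting controls. Activities were normalized against pairing with the unmodified scaffold.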

| Molecule | Mean relative activity |
| --- | --- |
| B1 | 0.6062 |
| B2 | 0.5831 |
| B3 | 0.5934 |
| B4 | 0.5863 |
| B5 | 0.5936 |
| B6 | 0.5775 |
| B7 | 1.049 |
| B8 | 0.6014 |
| B9 | 0.578 |
| B10 | 0.5792 |
| B11 | 0.5994 |
| B12 | 0.5955 |
| B13 | 1.049 |
| B14 | 0.6053 |
| B15 | 0.5965 |
| B16 | 0.5921 |
| B17 | 0.5821 |
| B18 | 0.592 |
| B19 | 0.6035 |
| B20 | 0.6057 |
| B21 | 0.5958 |
| B22 | 0.5903 |
